Reference: article PMC9772228, “Structure of a RecT/Redβ family recombinase in complex with a duplex intermediate of DNA annealing”

Assays:
[1] = target: LiRecT (RecT/Redβ family recombinase from the A118 prophage of Listeria innocua) (Listeria innocua); assay: native MS; free LiRecT without DNA at 30 µM, 100 mM ammonium acetate pH 7
[2] = target: T1, LiRecT WT (Listeria innocua CLIP 11262, UniProt Q92FL9 1-271); assay: native MS; 15 LiRecT:2 DNA among species; EMSA: PBS pH 7.4 (or KH2PO4/10 mM MgCl2 pH 6.0), 3.6 or 5 uM protein, 25 uM nt DNA, 37 C 15 min per strand, 0.8% agarose 1x TBE; cryo-EM: 20 mM KH2PO4 (Results: 10 mM), 10 mM MgCl2 pH 6.0, 37 C; native MS: 100 mM ammonium acetate pH 7, 37 C; settings: protein: recombinant; tags: N-terminal 6His, thrombin-cleaved in main prep; chain copies: 10; single strand
T1 sequence: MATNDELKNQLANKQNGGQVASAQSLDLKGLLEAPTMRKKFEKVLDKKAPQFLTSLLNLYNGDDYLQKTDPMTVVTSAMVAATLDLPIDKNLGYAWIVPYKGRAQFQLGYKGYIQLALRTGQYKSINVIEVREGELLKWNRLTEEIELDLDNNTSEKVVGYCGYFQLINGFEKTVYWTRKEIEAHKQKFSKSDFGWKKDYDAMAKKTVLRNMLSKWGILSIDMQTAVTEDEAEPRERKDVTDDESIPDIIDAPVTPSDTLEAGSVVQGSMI

[3] = target: T1, LiRecT WT; assay: EMSA; EMSA: PBS pH 7.4 (or KH2PO4/10 mM MgCl2 pH 6.0), 3.6 or 5 uM protein, 25 uM nt DNA, 37 C 15 min per strand, 0.8% agarose 1x TBE; cryo-EM: 20 mM KH2PO4 (Results: 10 mM), 10 mM MgCl2 pH 6.0, 37 C; native MS: 100 mM ammonium acetate pH 7, 37 C; settings: protein: recombinant, tags: N-terminal 6His, thrombin-cleaved in main prep, chain copies: 10, single strand
[4] = target: T2, λ-Redβ (bacteriophage lambda, UniProt P03698 1-261); assay: EMSA; sequential addition; EMSA: PBS pH 7.4 (or KH2PO4/10 mM MgCl2 pH 6.0), 3.6 or 5 uM protein, 25 uM nt DNA, 37 C 15 min per strand, 0.8% agarose 1x TBE; cryo-EM: 20 mM KH2PO4 (Results: 10 mM), 10 mM MgCl2 pH 6.0, 37 C; native MS: 100 mM ammonium acetate pH 7, 37 C; settings: protein: recombinant; label: 5'-Cy3;5'-Cy5; 49 bp, 1 nt 5' overhang at each end
T2 sequence: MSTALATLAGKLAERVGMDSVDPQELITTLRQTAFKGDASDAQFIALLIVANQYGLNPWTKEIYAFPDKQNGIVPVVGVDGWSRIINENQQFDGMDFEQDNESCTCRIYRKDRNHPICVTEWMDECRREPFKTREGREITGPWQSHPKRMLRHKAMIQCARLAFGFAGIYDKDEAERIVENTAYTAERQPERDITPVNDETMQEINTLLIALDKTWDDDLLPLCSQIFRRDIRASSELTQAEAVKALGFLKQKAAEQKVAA

[5] = target: T1, LiRecT WT; assay: as above; settings: protein: recombinant; tags: N-terminal 6His, thrombin-cleaved in main prep; chain copies: 10; label: 5'-Cy3;5'-Cy5; 49 bp, 1 nt 5' overhang at each end
[6] = target: T1, LiRecT WT; assay: native MS; 16 LiRecT:1 DNA among species; EMSA: PBS pH 7.4 (or KH2PO4/10 mM MgCl2 pH 6.0), 3.6 or 5 uM protein, 25 uM nt DNA, 37 C 15 min per strand, 0.8% agarose 1x TBE; cryo-EM: 20 mM KH2PO4 (Results: 10 mM), 10 mM MgCl2 pH 6.0, 37 C; native MS: 100 mM ammonium acetate pH 7, 37 C; settings: protein: recombinant; tags: N-terminal 6His, thrombin-cleaved in main prep; chain copies: 10; single strand
[7] = target: T1, LiRecT WT; assay: native MS; 1-2 fewer subunits than 83-mer complex; EMSA: PBS pH 7.4 (or KH2PO4/10 mM MgCl2 pH 6.0), 3.6 or 5 uM protein, 25 uM nt DNA, 37 C 15 min per strand, 0.8% agarose 1x TBE; cryo-EM: 20 mM KH2PO4 (Results: 10 mM), 10 mM MgCl2 pH 6.0, 37 C; native MS: 100 mM ammonium acetate pH 7, 37 C; settings: protein: recombinant; tags: N-terminal 6His, thrombin-cleaved in main prep; chain copies: 10; blunt
[8] = target: T1, LiRecT WT; assay: native MS; 17-18 LiRecT:1:1; EMSA: PBS pH 7.4 (or KH2PO4/10 mM MgCl2 pH 6.0), 3.6 or 5 uM protein, 25 uM nt DNA, 37 C 15 min per strand, 0.8% agarose 1x TBE; cryo-EM: 20 mM KH2PO4 (Results: 10 mM), 10 mM MgCl2 pH 6.0, 37 C; native MS: 100 mM ammonium acetate pH 7, 37 C; settings: protein: recombinant; tags: N-terminal 6His, thrombin-cleaved in main prep; chain copies: 10; blunt
[9] = target: T1, LiRecT WT; assay: cryo-EM; 10 mM MgCl2, pH 6.0; EMSA: PBS pH 7.4 (or KH2PO4/10 mM MgCl2 pH 6.0), 3.6 or 5 uM protein, 25 uM nt DNA, 37 C 15 min per strand, 0.8% agarose 1x TBE; cryo-EM: 20 mM KH2PO4 (Results: 10 mM), 10 mM MgCl2 pH 6.0, 37 C; native MS: 100 mM ammonium acetate pH 7, 37 C; settings: protein: recombinant; tags: N-terminal 6His, thrombin-cleaved in main prep; chain copies: 10; single strand
[10] = target: T1, LiRecT WT; assay: native MS; 17 LiRecT:2 DNA among species; EMSA: PBS pH 7.4 (or KH2PO4/10 mM MgCl2 pH 6.0), 3.6 or 5 uM protein, 25 uM nt DNA, 37 C 15 min per strand, 0.8% agarose 1x TBE; cryo-EM: 20 mM KH2PO4 (Results: 10 mM), 10 mM MgCl2 pH 6.0, 37 C; native MS: 100 mM ammonium acetate pH 7, 37 C; settings: protein: recombinant; tags: N-terminal 6His, thrombin-cleaved in main prep; chain copies: 10; single strand
[11] = target: T1, LiRecT WT; assay: native MS; 17 LiRecT:1:1; EMSA: PBS pH 7.4 (or KH2PO4/10 mM MgCl2 pH 6.0), 3.6 or 5 uM protein, 25 uM nt DNA, 37 C 15 min per strand, 0.8% agarose 1x TBE; cryo-EM: 20 mM KH2PO4 (Results: 10 mM), 10 mM MgCl2 pH 6.0, 37 C; native MS: 100 mM ammonium acetate pH 7, 37 C; settings: protein: recombinant; tags: N-terminal 6His, thrombin-cleaved in main prep; chain copies: 10; blunt

LiRecT (RecT/Redβ family recombinase from the A118 prophage of Listeria innocua) (natural protein)
stoichiometry N [1]: < 9

B1: 75+ (ssDNA)
DNA: TTGATAAGAGGTCATTTTTGCGGATGGCTTAGAGCTTAATTGCTGAATCTGGTGCTGTAGCTCAACATGTTTTAA
binding result [2]: binds

B2: Cy5-50mer (ssDNA)
DNA: CCATCCGCAAAAATCGAGCTATGCAGGGCGATTCTGCTCTAAGCCATCCG
binding result ([3]; label: 5'-Cy5): binds

B3: 50-mer duplex intermediate (sequential addition) (dsDNA)
DNA 1: GCGGATGGCTTAGAGCAGAATCGCCCTGCATAGCTCGATTTTTGCGGATG
DNA 2: CCATCCGCAAAAATCGAGCTATGCAGGGCGATTCTGCTCTAAGCCATCCG
binding result [4]: binds
binding result [5]: binds

B4: Cy3-50mer (ssDNA)
DNA: GCGGATGGCTTAGAGCAGAATCGCCCTGCATAGCTCGATTTTTGCGGATG
binding result ([3]; label: 5'-Cy3): binds

B5: 75- (ssDNA)
DNA: TTAAAACATGTTGAGCTACAGCACCAGATTCAGCAATTAAGCTCTAAGCCATCCGCAAAAATGACCTCTTATCAA
binding result [6]: binds

B6: 75-/75+ annealed duplex (sequential) (dsDNA)
DNA 1: TTAAAACATGTTGAGCTACAGCACCAGATTCAGCAATTAAGCTCTAAGCCATCCGCAAAAATGACCTCTTATCAA
DNA 2: TTGATAAGAGGTCATTTTTGCGGATGGCTTAGAGCTTAATTGCTGAATCTGGTGCTGTAGCTCAACATGTTTTAA
binding result [7]: binds

B7: 83-/83+ annealed duplex (sequential) (dsDNA)
DNA 1: TTGCATATTTAAAACATGTTGAGCTACAGCACCAGATTCAGCAATTAAGCTCTAAGCCATCCGCAAAAATGACCTCTTATCAA
DNA 2: TTGATAAGAGGTCATTTTTGCGGATGGCTTAGAGCTTAATTGCTGAATCTGGTGCTGTAGCTCAACATGTTTTAAATATGCAA
binding result [8]: binds

B8: 83- (ssDNA)
DNA: TTGCATATTTAAAACATGTTGAGCTACAGCACCAGATTCAGCAATTAAGCTCTAAGCCATCCGCAAAAATGACCTCTTATCAA
binding result [9]: binds

B9: 83+ (ssDNA)
DNA: TTGATAAGAGGTCATTTTTGCGGATGGCTTAGAGCTTAATTGCTGAATCTGGTGCTGTAGCTCAACATGTTTTAAATATGCAA
binding result [10]: binds

B10: 80-/80+ annealed duplex (sequential) (dsDNA)
DNA 1: CATATTTAAAACATGTTGAGCTACAGCACCAGATTCAGCAATTAAGCTCTAAGCCATCCGCAAAAATGACCTCTTATCAA
DNA 2: TTGATAAGAGGTCATTTTTGCGGATGGCTTAGAGCTTAATTGCTGAATCTGGTGCTGTAGCTCAACATGTTTTAAATATG
binding result [11]: binds

B11: 80- (ssDNA)
DNA: CATATTTAAAACATGTTGAGCTACAGCACCAGATTCAGCAATTAAGCTCTAAGCCATCCGCAAAAATGACCTCTTATCAA
binding result [10]: binds

B12: 80+ (ssDNA)
DNA: TTGATAAGAGGTCATTTTTGCGGATGGCTTAGAGCTTAATTGCTGAATCTGGTGCTGTAGCTCAACATGTTTTAAATATG
binding result [10]: binds
